Experimental data as given in article PMC4605325, “The STAT3 HIES mutation is a gain-of-function mutation that activates genes via AGG-element carrying promoters”.

Key:
[1] = target: T1, Myc-STAT3 wild type (purified) (UniProt P40763 1-770); assay: competition; 200-fold unlabeled competitor; Pull-down: 20 mM Hepes pH 7.9, 100 mM KCl, 5 mM MgCl2, 0.1 mM EDTA, 4 mM DTT, 12% glycerol, 60 min room temperature (Fig 6D: 30 min on ice); EMSA: LightShift chemiluminescent kit, buffer not stated; details: protein: recombinant; tags: Myc; chain copies: 2
[2] = target: T1, Myc-STAT3 wild type (purified); assay: EMSA; 2 ug protein, 1 nM probe; less efficient than SIE; Pull-down: 20 mM Hepes pH 7.9, 100 mM KCl, 5 mM MgCl2, 0.1 mM EDTA, 4 mM DTT, 12% glycerol, 60 min room temperature (Fig 6D: 30 min on ice); EMSA: LightShift chemiluminescent kit, buffer not stated; details: protein: recombinant; tags: Myc; chain copies: 2; label: 5'-biotin
[3] = target: Myc-STAT3 1-355 (purified) (UniProt P40763 1-355); assay: pull-down; IL-6; Pull-down: 20 mM Hepes pH 7.9, 100 mM KCl, 5 mM MgCl2, 0.1 mM EDTA, 4 mM DTT, 12% glycerol, 60 min room temperature (Fig 6D: 30 min on ice); EMSA: LightShift chemiluminescent kit, buffer not stated; details: protein: recombinant; tags: Myc; label: 5'-biotin
[4] = target: Myc-STAT3 C-terminal region (purified) (UniProt P40763 465-770); assay: as above; details: protein: recombinant; tags: Myc; label: 5'-biotin
[5] = target: Myc-STAT3 V461/462/463A (purified) (UniProt P40763 1-770, V461A;V462A;V463A); assay: pull-down; IL-6; enhanced vs WT; Pull-down: 20 mM Hepes pH 7.9, 100 mM KCl, 5 mM MgCl2, 0.1 mM EDTA, 4 mM DTT, 12% glycerol, 60 min room temperature (Fig 6D: 30 min on ice); EMSA: LightShift chemiluminescent kit, buffer not stated; details: protein: recombinant; tags: Myc; chain copies: 2; label: 5'-biotin
[6] = target: Myc-STAT3 R382Q (purified) (UniProt P40763 1-770, R382Q); assay: as above; details: protein: recombinant; tags: Myc; chain copies: 2; label: 5'-biotin
Chain of Myc-STAT3 R382Q (purified) (P40763 whole entry R382Q): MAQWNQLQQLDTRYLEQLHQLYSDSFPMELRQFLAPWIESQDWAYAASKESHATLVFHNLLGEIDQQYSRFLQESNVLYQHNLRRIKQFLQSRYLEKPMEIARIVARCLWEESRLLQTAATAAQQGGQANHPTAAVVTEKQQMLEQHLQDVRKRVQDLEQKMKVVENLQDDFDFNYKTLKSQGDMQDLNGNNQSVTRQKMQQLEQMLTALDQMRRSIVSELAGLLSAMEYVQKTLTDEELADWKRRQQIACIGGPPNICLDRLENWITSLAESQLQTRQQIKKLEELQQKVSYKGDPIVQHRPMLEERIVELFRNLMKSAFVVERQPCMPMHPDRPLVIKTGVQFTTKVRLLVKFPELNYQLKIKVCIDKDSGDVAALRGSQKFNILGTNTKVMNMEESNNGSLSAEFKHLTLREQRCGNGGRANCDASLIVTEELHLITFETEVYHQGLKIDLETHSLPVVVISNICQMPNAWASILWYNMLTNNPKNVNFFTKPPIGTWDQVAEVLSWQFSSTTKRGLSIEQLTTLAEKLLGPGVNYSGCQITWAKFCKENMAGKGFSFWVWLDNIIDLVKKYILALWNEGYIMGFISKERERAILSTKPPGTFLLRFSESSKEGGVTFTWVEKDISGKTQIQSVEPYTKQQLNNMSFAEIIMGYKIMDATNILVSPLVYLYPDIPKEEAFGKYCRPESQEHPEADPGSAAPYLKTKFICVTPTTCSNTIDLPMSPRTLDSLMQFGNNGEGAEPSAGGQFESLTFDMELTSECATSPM

T1 sequence (P40763 whole entry): as the sequence (P40763 whole entry R382Q) above, with Q382R counted along it
Chain of Myc-STAT3 1-355 (purified) (P40763 1-355): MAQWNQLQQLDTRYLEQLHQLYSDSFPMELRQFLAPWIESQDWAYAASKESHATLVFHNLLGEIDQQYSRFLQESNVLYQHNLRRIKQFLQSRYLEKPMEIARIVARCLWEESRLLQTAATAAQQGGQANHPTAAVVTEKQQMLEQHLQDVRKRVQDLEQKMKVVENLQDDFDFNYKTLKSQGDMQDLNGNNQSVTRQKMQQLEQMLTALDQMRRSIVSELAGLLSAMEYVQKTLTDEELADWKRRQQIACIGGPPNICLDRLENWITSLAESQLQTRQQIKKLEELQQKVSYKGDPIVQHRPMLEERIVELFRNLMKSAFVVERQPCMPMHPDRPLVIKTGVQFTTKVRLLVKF
Chain of Myc-STAT3 V461/462/463A (purified) (P40763 whole entry V461A/V462A/V463A): as the sequence (P40763 whole entry R382Q) above, with Q382R, V461A, V462A, V463A counted along it
Chain of Myc-STAT3 C-terminal region (purified) (P40763 465-770): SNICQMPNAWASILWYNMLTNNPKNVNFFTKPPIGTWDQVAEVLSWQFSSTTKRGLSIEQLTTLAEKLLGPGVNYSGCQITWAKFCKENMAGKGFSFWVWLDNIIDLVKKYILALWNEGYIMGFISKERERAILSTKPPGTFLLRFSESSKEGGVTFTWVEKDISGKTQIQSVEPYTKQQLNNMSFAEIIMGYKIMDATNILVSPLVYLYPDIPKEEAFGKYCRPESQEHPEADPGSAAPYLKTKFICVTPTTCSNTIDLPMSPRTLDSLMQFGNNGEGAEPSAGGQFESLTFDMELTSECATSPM

B1: AGG oligo, unlabeled (dsDNA)
DNA 1: TTTGGGAGGCCGAGGTGGG
DNA 2: CCCACCTCGGCCTCCCAAA
- binding result [1]: binds

B2: AGG-element oligo (dsDNA)
DNA 1: TTTGGGAGGCCGAGGTGGG
DNA 2: CCCACCTCGGCCTCCCAAA
- binding result [2]: binds
- binding result [3]: binds
- binding result [4]: no binding
- binding result [5]: binds
- binding result [6]: binds
